The data set in a line: soluble on expression in E. coli; label from the status in PepcDB or PDB records.
For “MSLSLSLAEARRLALAAQGFDGRRTRRSVQRRHLREMLARLGLLQIDSVNALVRSHYLPLFSRLGPYSMTLLDEAAWSVGRHRQLFEYWGHEASLLPLEHYPLMRWRMRQAADGQGIYQQLARFGREQQPLIRQVLQAVREQGALGAGSLSTRQERAGPWWDWSAEKHALEWLFAAGELTVAGRRGFERLYDLPERVFPAELLARPELSEAQAQRELLRMAASALGVATEKDLRDYYRLSPAQSRARLAELVEAGELLPVRVEGWSQPAYCPGEPQVPRRLGASALLSPFDSLVWERARAERLFDFRYRLEIYTPKEKRVYGYYVLPFLYNGRLVGRVDLRAERARERLVVHALHAEANGMDDAALHELAEQLRSMAAWLGLATVAIEGRGELAVRLRGVLLLEHHHHHH”, the “soluble on expression in E. coli” value was “not soluble”. Then “MREFGEKIKRLRLAKKISRSEFCGDESELSIRQLIRIENGESRPILTKLKYIAERLGVEDYKLMPSYIELDKEYLELKYFLMRTPTYEDETIAQKKESVFDKIFEEYYDRLPEEERFIIPNYSYLALTNYTVQKLPEKLVEILSFW”, with “not soluble”; and “MGSDKIHHHHHHMWFKNLKIYRLSAPWALNGDQLEECLARFAYQGGNNLEMQSLGWISPRENGLLAHTLNGQILLTLRAEKKLLPTTVVNQVAKARAQEIEEQQGYKPGRKQMKEIKERVTDELLPKAFSIYRDTRVWIDTVNHWLVIDAAASAKADEVIGLLVKTIDPLPLDNLYVEQSPAAAMTGWLAADEAPANFSIDQDTELRASGESRAAIRYVKHSIDVDDVRRHIQSGKQCTRLAMTWADRVSFVLTESLDVKRVAPLDVLKENPDAATQNDDEKFDSDMTLMTGEVAKLLAELVDSLGGEKRV”, with “not soluble”; and “MRLLPLVAAATAAFLVVACSSPTPPRGVTVVNNFDAKRYLGTWYEIARFDHRFERGLEKVTATYSLRDDGGLNVINKGYNPDRGMWQQSEGKAYFTGAPTRAALKVSFFGPFYGGYNVIALDREYRHALVCGPDRDYLWILSRTPTISDEVKQEMLAVATREGFDVSKFIWVQQPGS”, with “soluble”. The entry for “MNLKDLLAHRENLMDSAKRARSAITDDMDPADAAQAVENVKSIISEIESTDEAIAARRGVSDVTQKLKGLTITERGTENDSAASRSLGEHFVKAAGDRLKNQAAGAHIEYSVPEYQVKEDAHSSPKDLVEGWGTFYQR” is “soluble”. In the case of “MGVPAFFRWLTKKYPATVVNANEDRQRDQDGNRVPVDCTQPNPNFQEFDNLYLDMNGIIHPCTHPEDRPAPKNEDEMFALIFEYIDRIYSIVRPRRLLYMAIDGVAPRAKMNQQRSRRFRASKEMAEKEASIEEQRNRLMAEGIAVPPKKKEEAHFDSNCITPGTPFMARLADALRYYIHDRVTNDASWANIEIILSDANVPGEGEHKIMDYVRKQRGNPAHDPNTVHCLCGADADLIMLGIATHEANFNIIREEFVPNQPRACDLCGQYGHELKECRGAENETDLGDDYCKPEQREKNFIFLRIPVLREYLEKELSMPNLPFKFDVERALDDWVFLCFFVGNDFLPHLPSLEIREGAIDRLIKLYKEMVYQMKGYLTKDGIPELDRVEMIMKGLGRVEDEIFKRRQQDEERFQARMCREESPADIASRKRKAEQPLIKPEEEEDEGPKDDIRLYESGWKDRYYRAKFDVGSDDIEFRHRVAWAYVEGLCWVLRYYYQGCASWDWYFPYHYAPFASDFETVGEFQPDFTRPTKPFNPLEQLMSVFPAASKQHLPVEWQKLMIQDDSPIIDLYPADFRIDLNGKKYAWQGVALLPFVDETRLLATLQSVYPTLTAEEKQRNTRGPNRIFIGRNHKSFEFFQQVAESKSDDLVPLDPTLLNGVSGKIAYDSTATAPGLPFVSPVNHDECQDLPTNCGICVLYEDPEYPQDYIFPALRLDGAKEPEKTLKPDDWNDRRDGRYQPQVGFNRNAPRGSLDQSGHRQVHHYVRGGGGGGGGYRGNSYDDRRGGGGGGGGYNDRQDFGRNYGGRDGGGPQRYHDQQQQRQGGYQGGGYGGGYGGGGGGGGGGGGGSYHQPYNQDQRRGGRGGGGGPPGYQRPPYRGGGGGGYHGNSSWR”, the “soluble on expression in E. coli” value is “not soluble”. Then “GSHMEDSTTNITKKQKWTVEESEWVKAGVQKYGEGNWAAISKNYPFVNRTAVMIKDRWRTMKRLGMN”, with “soluble”; and “MSLDIKQLKFLIALDQTRHFGQAAALCHITQPTLSMRLRNLEDELDLVLVKRGQRFEGFTEAGERILAWARTLLAAHDGLQAEAASCRGQVVGSLRLGTVPLASFNPMHLLLPLREKYPELHFQLSSLSSEQVIDGLSRNQLDLGICYLDQVNTSFFEVIELGTTTMGLLHDTRHFQFTSDRLRWDELGDIPLGLLSKGMHYRQSLDLSFRSRGLEPNAVLESDSSFQLIQAINTGICCAIMPLDCGLEDLSEHLRIVPVADAAIHSPVGLLLRRSEPRSAIAEQCFAEARGLFQASEGHHHHHH”, with “soluble”. As for “MSNEQLADLTQPQRDRLAFVELRVRFIGEIRRQDLVTRFGIQSAAASRDLALYKELAPGNIDYDSKGKSYVLGPDFRPVFDFPPERVLSWLTQGFGDGEPMRLKAWVASESPSRLTHPDLDVLASVTRAIHQECPLGIEYHSISSGRTEREIVPFALIDNGLRWHVRAFDRKSQEFRDFVITRIKRPVLIRDAEVQSHERSDQDIQWTRIVELEMVPHPDQPRPEITEMDYGMVRGSLRMKLRAATAGYILRQWSVDCSPDHSLRGYEFRLWLKDHLALYGVKNAVLAPGYRSPDQNKGEQ”, the “soluble on expression in E. coli” value was “soluble”.

For the sequence “GQHTLKQFAADSALTTTTPLCSEVPLFDINALGDWTYLGTSLPAKFAKLFASILHCIDDEYFLITPVEKVRVQVEDAPLLIVDFERAQPHSLLNVSTSIGTLHHNVDIKQMKLTDDSVYLPLERGLWGKLGRACYYNFVNEFNLSDLNEQ”, the “soluble on expression in E. coli” value is given as “soluble”. For “MLRYFRAFLPKEERFFDLFAQHTHTVVQGAQALQDMLRGGDETLVHCQRVSHFESEADNITREVLTAVRRTFITPFDRVDIKNLITSMDDAIDQMQQTAKAVILFEVREFEPPMREIGTLLVESANLVGRAVPLMQSIGPNLQMLTAMTEEITKLEGRVDDLHDIGLKELFLKHRNANTMDYIVGAEIYDHLEKVADRFDDVANEINSIVIEQVAAALEHHHHHH”, the “soluble on expression in E. coli” value was “soluble”. For the sequence “SGKGGWLLNFLNHAKNQESVENLDKNGAVKAPSSGFKMPLHYPRYTKEDYEEMEEWRLDLLLSEYGLLAFHDNTLHEKRAFAIDTFIWPHHP”, the “soluble on expression in E. coli” value is given as “soluble”. Regarding “MEANILSTHKSKILVFKGWSERQKSVVFIPIEAVLEGHNIEVQFFEKPNEPVTFQVKDKNGNIVFQDMTTPDNLEIYQIDVSGFKTGQYELLYIEKDVTLIGEFEIE”, the “soluble on expression in E. coli” value is “not soluble”. Turning to “MGSDKIHHHHHHMNLKRRRLLDLKSEIFEKIIKIEGNKIDIKPPKKIPQPILSPSREGFDSRNTYNPAVIKEKDRIVMLYRAESKEDKLTGRIGLAISYDGINFFRHPEPIIEPEYKWESVGVEDPRIVKVGKTYYMTYTGYDGKTARLCLATSKNMLTWKKHGPIFEGFEYKKNNIKGWTKSGAILPKKLEKGNFKGNYLMYFGDSNIWMAVSKDLVNWEYMKEPVLSPREGYFDNVLVEPGPPLFETSYGIALIYNSAGRYGDKLKYKVGVVIFDKEYPDKVVARTETPLMVPEYEWELYGHVNNVVFVEGMVEHENKILLYYGGADRHIGLAYWTTDL”, the “soluble on expression in E. coli” value is “not soluble”. Consider “MGHHHHHHSHMEDLLDLDEELRYSLATSRAKMGRRAQQESAQAENHLNGKNSSLTLTGETSSAKLPRCRQGGWAGDSVKASNGTQTGKQQLDLNACYHKTHHRNLGLASLEEADIPIIPDLEEVQEEDFVLQVAAPPSIQIKRVMTYRDLDNDLMKYSAIQTLDGEIDLKLLTKVLAPEHEVREDDVGWDWDHLFTEVSSEVLTEWDPLQTEKEDPAGQARHT”, for which the “soluble on expression in E. coli” value was “soluble”.

Regarding “RKLHAEELLRLAMAHLRNQGKPVRIVDIAAGHGRYILESLRGVEPLPESILLRDYSDINVRDGSLLIEQKDLEDIARFVKGDAFDRNDLATLDPKPTLAVVSGLYELFSSNQMVGDSLAGLAAAVEPGGYLVYTGQPWHPQLELIARALTSHREGQAWVMRRRSQSEMDQLVEAAGFRKITQRVDEWGIFTVSLAQRIQ”, the “soluble on expression in E. coli” value is listed as “not soluble”. For “MGHHHHHHSHMPPGGHIESGASFSPSAGSDGDKGLKPREEGEAPEAGPCLASQLAPVQWVAPPRLLLRLIFIDLPALLIAPTAESSAEEDEEPHDEGQSSEDQAPIANGLIVIVERVHVPLGAAATVHRQPSHFPR”, the “soluble on expression in E. coli” value is “not soluble”. Turning to “SNATKTIHNARYQALLDLLLEARSAAGITQKELAARLGRPQSFVSKTENAERRLDVIEFMDFCRGIGTDPYALLSKLEAMTPS”, the “soluble on expression in E. coli” value is reported as “soluble”.

Turning to “MLGAIIGDLVAWTWERDQSLFYQRLIAPKANISEVGLAVLGVTEPMLRGSSEVEWESLYLHIREIIQRDRITDISPDFNDWTEAGHQAVIPKEVKSVMHLAVSIVGGWCDAPLETTLAYSRRFHGGKEEYYLTQIAEIIYRLRQGATKQEAMEDIHYIKNWKPQGKVSLLGYAHHAWQCFLQSWDFTSALHNAMRCSYGDKHLLGALTGAIAEAMYSCEYGFIKEKYGKGSDTQFMLSLPKELSGLYRVELGLIESNKELLRTFFPKNRALTNVEVWQWFDLPNIVAHKPLSEREYQRIRLSHDTGWDARYGIYWDDGWYYVYCSGFLLNRFRVEEMQDHTYRITRIQYCTQHEEGKAYNALIKALSLDGLDMSAYSQYKD”, the “soluble on expression in E. coli” value is “not soluble”. With “TLANNRVRLLVNGEASFEAMFKAISAARQVILVQFFIVRDDALGQRLQQLLLERAANGVEVFFLYDAIGSHALPHRYVERLRQGGVQMHGFSTGSGMLNRFQVNFRNHRKVVVVDGECGFVGGHNVGVEYLGEKPPLAPWRDTHMELRGPAVACLQESFAEDWYWATHSLPPLILPPQYDSEGALCQVVASGPA”, the “soluble on expression in E. coli” value was “not soluble”. Turning to “MGSDKIHHHHHHMKVLIVGGSGGIGQAMVKQVQETYPDATVHATYRHHLPNDRQNNIQWHALDVTNEAEIKQLSEQLTELDWLINCVGILHTQDKGPEKSLQSLDIDFFQHNLTLNTLPSVMLAKHFCHALKQSDSARFAVISAKVGSITDNRLGGWYSYRASKAALNMFLKTLAIEWQRNMKHCVVLSLHPGTTDTPLSQPFQQSVPKGKLFTPEYVANCLLPIIANATPAQTGCFFAYDGTELPW”, the “soluble on expression in E. coli” value is recorded as “not soluble”. For the sequence “MSLARRHELSIALILQDKFTIAAFSGFIDALRLAADDAAKSRQIRVAWKVFAQHRSPVMASCGLRVATEDGLPVPEDYDYIAICGGNSFADAAPAPQLAQLIQRAHRARVGLLGICTGSFAIARAGLIGDRRFCIHWNVAEPFKALFPRAQISVDRIFIDEGDVITCAGSTAAIDLALYLVMRHCGQDRAQQVMRHMMLSQMRPATMPQAHFYQLPPGDSHPRLRRALHFMEQQLDHPPSVGAIARYCGVSVRQLERIFLQALGQTPNAAFRQMRLNYGRYLLSAGTLPVTEIAHIAGFSDAAHFSREFRRAFHETPSAHRRARSHGPDEGHHHHHH”, the “soluble on expression in E. coli” value was “soluble”. Regarding “MSLVLNFVGTGTLTRFFLECLKDRYEIGYILSRSIDRARNLAEVYGGKAATLEKHPELNGVVFVIVPDRYIKTVANHLNLGDAVLVHCSGFLSSEIFKKSGRASIHPNFSFSSLEKALEMKDQIVFGLEGDERGLPIVKKIAEEISGKYFVIPSEKKKAYHLAAVIASNFPVALAYLSKRIYTLLGLDEPELLIHTLMKGVADNIKKMRVECSLTGPVKRGDWQVVEEERREYEKIFGNTVLYDEIVKLLREVAESERREAQEDEREGGSHHHHHH”, the “soluble on expression in E. coli” value is reported as “soluble”.

The record behind these values is the DeepSol protein solubility set.
